Here are results for two molecules from patent publication US20200384081A1 (Janssen / Centocor, published 2020).

One experiment has as its target IL-12 (mouse) (mouse) (UniProt P43432). Description: cell-based or functional assay. Conditions: scale: fold more effective than the anti-p35 mAb.
Experiment [1] has as its target T1, human p40 single mutant S43R (human, UniProt P29460 23-328).
T1 construct: HEK293E supernatant
T1 sequence: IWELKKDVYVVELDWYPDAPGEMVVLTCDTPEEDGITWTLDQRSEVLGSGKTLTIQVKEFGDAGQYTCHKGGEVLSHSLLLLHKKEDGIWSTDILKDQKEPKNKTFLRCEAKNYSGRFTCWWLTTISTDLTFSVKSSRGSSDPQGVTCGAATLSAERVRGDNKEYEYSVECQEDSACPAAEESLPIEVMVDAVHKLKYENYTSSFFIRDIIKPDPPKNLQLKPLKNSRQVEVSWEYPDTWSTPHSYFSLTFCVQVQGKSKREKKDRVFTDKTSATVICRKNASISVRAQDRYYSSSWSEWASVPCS
Kind of experiment: capture assay, relative binding affinity of the mAb to p40 muteins (FIG. 4). How it is done: (§1) In brief, MSD high bind plates (Meso Scale Discovery, MD) were coated with 5 μl of a capture monoclonal antibody (5 μg/ml) at room temperature for 1 hour. […] One-hundred and fifty (150) μl of 5% MSD Blocker A buffer was added to each well and incubated for 1 hr at room temperature. Plates were washed three times with 0.1 M HEPES buffer (pH 7.4). These protein-charged ELISA plates were incubated with 25 μl of different transiently expressed p40 mutant supernatants (1:10 dilution with 0.1 M HEPES buffer, pH 7.4) for 1 hr at room temperature. The plates were washed three times with 0.1 M HEPES buffer (pH 7.4). Twenty-five (25) μ1 of different concentrations of MSD Sulfo-TAG labeled p40 mAb, ranging from 0 to 20 μg/ml, were dispensed to micro-wells. After incubation for 2 hrs shaking at room temperature, plates were washed 3 times with 0.1 M HEPES buffer (pH 7.4). One hundred and fifty (150) μ1 of diluted MSD Read Buffer T was dispensed into each well and the plates were analyzed with a SECTOR imager (MSD).

Experiment [2] addresses T2, human p40 single mutant E45A (human, UniProt P29460 23-328).
T2 construct: HEK293E supernatant
T2 sequence: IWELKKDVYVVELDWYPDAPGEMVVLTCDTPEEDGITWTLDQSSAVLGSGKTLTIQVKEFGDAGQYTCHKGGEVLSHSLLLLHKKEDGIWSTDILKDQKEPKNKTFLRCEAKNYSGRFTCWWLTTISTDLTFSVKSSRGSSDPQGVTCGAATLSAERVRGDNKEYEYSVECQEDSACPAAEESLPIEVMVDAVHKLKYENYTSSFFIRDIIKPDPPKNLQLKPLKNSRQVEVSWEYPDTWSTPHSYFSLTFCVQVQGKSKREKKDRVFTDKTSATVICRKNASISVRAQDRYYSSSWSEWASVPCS
The description is as above. How it is done:
as §1

The target of experiment [3] is T3, human p40 single mutant L40T (human, UniProt P29460 23-328).
T3 construct: HEK293E supernatant
T3 sequence: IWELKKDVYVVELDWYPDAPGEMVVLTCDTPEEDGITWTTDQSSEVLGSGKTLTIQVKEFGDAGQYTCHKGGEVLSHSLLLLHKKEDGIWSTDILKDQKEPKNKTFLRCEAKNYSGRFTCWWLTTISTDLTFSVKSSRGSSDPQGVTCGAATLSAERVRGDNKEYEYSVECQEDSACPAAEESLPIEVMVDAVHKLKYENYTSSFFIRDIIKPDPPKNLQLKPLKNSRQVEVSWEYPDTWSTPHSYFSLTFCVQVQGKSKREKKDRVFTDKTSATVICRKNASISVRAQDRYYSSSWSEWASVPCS
Described as above. The procedure: as §1

Experiment [4] has as its target T4, human p40 single mutant M23T (human, UniProt P29460 23-328).
T4 construct: HEK293E supernatant
T4 sequence: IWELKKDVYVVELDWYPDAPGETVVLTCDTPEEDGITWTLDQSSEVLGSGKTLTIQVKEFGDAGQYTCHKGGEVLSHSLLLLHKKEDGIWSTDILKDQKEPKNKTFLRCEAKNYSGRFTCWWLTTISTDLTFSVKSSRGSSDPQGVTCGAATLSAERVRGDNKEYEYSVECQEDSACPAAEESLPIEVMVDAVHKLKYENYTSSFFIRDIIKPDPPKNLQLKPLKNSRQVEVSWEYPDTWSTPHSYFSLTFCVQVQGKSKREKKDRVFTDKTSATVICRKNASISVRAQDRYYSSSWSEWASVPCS
The experiment is described as above. How it is done:
as §1

Sequence of IL-12 (mouse) (mouse) (P43432 23-335 limits assumed, chain 1 of 2): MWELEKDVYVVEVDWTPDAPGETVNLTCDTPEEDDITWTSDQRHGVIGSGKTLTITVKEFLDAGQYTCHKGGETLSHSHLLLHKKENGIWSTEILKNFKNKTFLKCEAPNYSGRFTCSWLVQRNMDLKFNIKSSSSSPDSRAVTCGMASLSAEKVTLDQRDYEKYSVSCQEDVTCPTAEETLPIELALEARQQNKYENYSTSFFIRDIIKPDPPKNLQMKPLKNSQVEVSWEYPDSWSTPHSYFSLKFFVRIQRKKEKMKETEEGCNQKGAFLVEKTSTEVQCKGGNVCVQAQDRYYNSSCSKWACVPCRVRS
Sequence of IL-12 (mouse) (mouse) (P43431 23-215 limits assumed, chain 2 of 2, further chain): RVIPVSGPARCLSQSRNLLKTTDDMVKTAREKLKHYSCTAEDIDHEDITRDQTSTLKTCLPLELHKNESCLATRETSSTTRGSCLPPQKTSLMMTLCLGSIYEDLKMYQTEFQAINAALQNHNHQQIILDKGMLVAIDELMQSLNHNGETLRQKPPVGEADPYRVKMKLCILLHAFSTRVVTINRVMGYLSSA

“C17.8 (rat anti-mouse IL-12/IL-23p40, IgG2a) (antibody)”: the neutralizing IL-12 (in vitro neutralization studies) in the experiment with IL-12 (mouse) (mouse) came to 5.

B1: IL-12/IL-23p40 mAb (antibody, V domains shown)
VH: EVQLVQSGAEVKKPGESLKISCKGSGYSFTTYWLGWVRQMPGKGLDWIGIMSPVDSDIRYSPSFQGQVTMSVDKSITTAYLQWNSLKASDTAMYYCARRRPGQGYFDFWGQGTLVTVSS
VL: DIQMTQSPSSLSASVGDRVTITCRASQGISSWLAWYQQKPEKAPKSLIYAASSLQSGVPSRFSGSGSGTDFTLTISSLQPEDFATYYCQQYNIYPYTFGQGTKLEIKR
notes: Fully human monoclonal IgG from a mammalian cell line, purified on protein A; also called IL-12/23p40 mAb; IL-12 p40 antibody
As for B1, the reduction of binding is approximately 40% in experiment [1], approximately 70% in experiment [2], approximately 40% in experiment [3] and approximately 40% in experiment [4].
